This is an account of results in patent US8106154B2, “Nitrogen-based linkers for attaching modifying groups to polypeptides and other macromolecules” (Affymax, Inc., priority 2007, dated 2012).

Type in all cases: cell-based
The target in experiment [1] is T1, human EPO-R (Homo sapiens, UniProt P19235).
T1 construct: expressed in transfected cells; host or cells: murine pre-B-cell line
T1 sequence (P19235 25-508): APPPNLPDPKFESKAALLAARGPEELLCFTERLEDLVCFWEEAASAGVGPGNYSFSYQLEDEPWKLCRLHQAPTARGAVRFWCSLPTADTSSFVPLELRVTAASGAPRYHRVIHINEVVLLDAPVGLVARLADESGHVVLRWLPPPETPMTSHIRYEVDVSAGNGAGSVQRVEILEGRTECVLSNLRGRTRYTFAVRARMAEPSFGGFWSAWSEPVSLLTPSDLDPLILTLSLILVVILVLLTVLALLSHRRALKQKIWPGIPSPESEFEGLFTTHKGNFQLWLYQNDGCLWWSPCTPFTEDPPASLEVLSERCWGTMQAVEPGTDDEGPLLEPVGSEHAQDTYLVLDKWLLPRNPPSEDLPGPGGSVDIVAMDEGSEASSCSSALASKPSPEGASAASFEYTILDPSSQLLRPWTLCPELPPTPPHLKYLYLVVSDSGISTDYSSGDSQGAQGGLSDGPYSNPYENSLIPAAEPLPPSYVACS
Put plainly: Reporter assay (fos promoter-driven luciferase). To be noted: murine pre-B-cell line expressing human EPO-R with luciferase reporter; 4 hr incubation; half-maximal relative to EPO. From the text:
This assay was based upon a murine pre-B-cell line transfected to express human EPO-R and further transfected with a fos promoter-driven luciferase reporter gene construct. Upon exposure to EPO or another EPO-R agonist, such cells respond by synthesizing luciferase. Luciferase causes the emission of light upon addition of its substrate luciferin. Thus, the level of EPO-R activation in such cells may be quantitated via measurement of luciferase activity.
The activity of a test peptide was measured by adding serial dilutions of the test peptide to cells, which were then incubated for 4 hr. After incubation, luciferin substrate was added to the cells, and light emission was measured. The concentration of test peptide that results in a half-maximal emission of light, relative to that observed with EPO, was recorded as the EC50.

For experiment [2], the target named is T1, human EPO-R. As to the kind of experiment: Proliferation assay (MTT). To be noted: murine pre-B-cell line expressing human EPO-R, 48 hours incubation, half-maximal relative to EPO. As to the method:
This assay was based upon a murine pre-B-cell line transfected to express human EPO-R. Proliferation of this cell line is dependent on EPO-R activation. The degree of cell proliferation was quantitated using MTT, where the signal in the MTT assay is proportional to the number of viable cells. The activity of a test peptide was measured by adding serial dilutions of the test peptide to cells, which were then incubated for 48 hours. After incubation, MTT was added to the cells, and absorbance was measured. The concentration of test peptide that results in a half-maximal absorbance, relative to that observed with EPO, was recorded as the EC50.

The test system of experiment [3] is primary human bone marrow pluripotent stem cells. The method, then: EPO-R signaling stimulates the differentiation of bone marrow stem cells into proliferating red blood cell presursors. This assay measured the ability of test peptides to stimulate the proliferation and differentiation of red blood cell precursors from primary human bone marrow pluripotent stem cells. Test peptides were added to cultures of human bone marrow cells, and the cells are incubated for 16 days. Thereafter, the number of red blood cell colonies were counted. The concentration of test peptide at which the number of formed colonies is 90% of maximum, relative to that observed with EPO, was recorded as the EC90.

On to “Compound V: As Example 10 but peptide monomer Ac-GGLYACHYGPIT(Nal)VCQPLR(MeG)K, SEQ ID NO: 23 (GGLYACHYGPITXVCQPLRXK; not fully specified; conjugate chemistry not built)”, for which the EC50 (commonly the concentration that produces a half-maximal response) with human EPO-R [1] is 0.69 nM; with human EPO-R [2] it was 0.44 nM.

Take `CC[C@H](C)[C@@H]1NC(=O)[C@@H]2CCCN2C(=O)CNC(=O)[C@H](CCSC)NC(=O)[C@H](Cc2c[nH]cn2)NC(=O)[C@@H](NC(=O)[C@H](C)NC(=O)[C@H](Cc2ccc(O)cc2)NC(=O)[C@H](CC(C)C)NC(=O)CNC(=O)CNC(C)=O)CSSC[C@@H](C(=O)N[C@@H](CCC(N)=O)C(=O)N2CCC[C@H]2C(=O)N[C@@H](CC(C)C)C(=O)N[C@@H](CCCNC(=N)N)C(=O)N(C)CC(=O)N[C@@H](CCCCNC(=O)CN(CC(=O)NCCCC[C@H](NC(=O)CN(C)C(=O)[C@H](CCCNC(=N)N)NC(=O)[C@H](CC(C)C)NC(=O)[C@@H]2CCCN2C(=O)[C@H](CCC(N)=O)NC(=O)[C@@H]2CSSC[C@H](NC(=O)[C@H](C)NC(=O)[C@H](Cc3ccc(O)cc3)NC(=O)[C@H](CC(C)C)NC(=O)CNC(=O)CNC(C)=O)C(=O)N[C@@H](Cc3c[nH]cn3)C(=O)N[C@@H](CCSC)C(=O)NCC(=O)N3CCC[C@H]3C(=O)N[C@@H]([C@@H](C)CC)C(=O)N[C@@H]([C@@H](C)O)C(=O)N[C@@H](Cc3cccc4ccccc34)C(=O)N[C@@H](C(C)C)C(=O)N2)C(N)=O)C(=O)CCCC(=O)N(CCN)CCN)C(N)=O)NC(=O)[C@H](C(C)C)NC(=O)[C@H](Cc2cccc3ccccc23)NC(=O)[C@H]([C@@H](C)O)NC1=O` [Example 8 peptide (non-PEGylated)]: the 90% effect level in experiment [3] (EC90) was put at 0.026 nM.
